# Assay results from patent publication US20220273789A1.
# Molecular target: human IgG (human)
# Assay: BLI (Octet), gEgI on Ni-NTA sensor, hIgG in solution; for Response: test concentration or dose not given here
Substance,Kd [nM],Response [nm],koff [s⁻¹],kon [M⁻¹ s⁻¹]
HSV2-gE_H245S P319G_gI (from UniProt P89475 21-416; P06764 21-256) (receptor),363,0.313,0.0027,7440
HSV2-gE_H245S P319L_gI (from UniProt P89475 21-416; P06764 21-256) (receptor),292,0.323,0.0019,6520
HSV2-gE_P317F S338G_gI (from UniProt P89475 21-416; P06764 21-256) (receptor),399,0.153,0.00248,6220
HSV2-gE_P317F S338H_gI (from UniProt P89475 21-416; P06764 21-256) (receptor),339,0.182,0.00167,4910
HSV2-gE_P317F S338L_gI (from UniProt P89475 21-416; P06764 21-256) (receptor),225,0.442,0.00165,7370
HSV2-gE_P317F V340M_gI (from UniProt P89475 21-416; P06764 21-256) (receptor),291,0.259,0.00189,6510
HSV2-gE_P317F V340R_gI (from UniProt P89475 21-416; P06764 21-256) (receptor),372,0.301,0.00218,5880

# Molecular target: human IgG (human)
# Assay: BLI Octet, construct on Ni-NTA sensor, hIgG in solution
Substance,Kd [nM],Response (nm),koff [s⁻¹],kon [M⁻¹ s⁻¹]
HSV2-gE_P318S_gI (from UniProt P89475 21-416; P06764 21-256) (receptor),9900,0.124,0.00504,509
HSV2-gE_P318T_gI (from UniProt P89475 21-416; P06764 21-256) (receptor),14900,0.174,0.00711,478
HSV2-gE_P318Y_gI (from UniProt P89475 21-416; P06764 21-256) (receptor),< 0.001,0.0215,< 1e-07,3480
HSV2-gE_P319L_gI (from UniProt P89475 21-416; P06764 21-256) (receptor),1390,0.328,0.00444,3190
HSV2-gE_R314A_gI (from UniProt P89475 21-416; P06764 21-256) (receptor),468,0.629,0.00557,11900
HSV2-gE_R314D_gI (from UniProt P89475 21-416; P06764 21-256) (receptor),900,0.385,0.00583,6480
HSV2-gE_R314E_gI (from UniProt P89475 21-416; P06764 21-256) (receptor),1300,0.306,0.0058,4470
HSV2-gE_R314F_gI (from UniProt P89475 21-416; P06764 21-256) (receptor),884,0.325,0.0048,5430
HSV2-gE_R314G_gI (from UniProt P89475 21-416; P06764 21-256) (receptor),572,0.478,0.0052,9080
HSV2-gE_R314I_gI (from UniProt P89475 21-416; P06764 21-256) (receptor),658,0.446,0.00556,8450
HSV2-gE_R314K_gI (from UniProt P89475 21-416; P06764 21-256) (receptor),583,0.461,0.00549,9420
HSV2-gE_R314L_gI (from UniProt P89475 21-416; P06764 21-256) (receptor),702,0.442,0.00521,7430
HSV2-gE_R314M_gI (from UniProt P89475 21-416; P06764 21-256) (receptor),608,0.519,0.00592,9730
HSV2-gE_R314N_gI (from UniProt P89475 21-416; P06764 21-256) (receptor),1310,0.301,0.00748,5700
HSV2-gE_R314P_gI (from UniProt P89475 21-416; P06764 21-256) (receptor),443,0.557,0.00474,10700
HSV2-gE_R314Q_gI (from UniProt P89475 21-416; P06764 21-256) (receptor),498,0.568,0.00535,10800
HSV2-gE_R314S_gI (from UniProt P89475 21-416; P06764 21-256) (receptor),406,0.585,0.00515,12700
HSV2-gE_R314T_gI (from UniProt P89475 21-416; P06764 21-256) (receptor),575,0.417,0.0049,8530
HSV2-gE_R314V_gI (from UniProt P89475 21-416; P06764 21-256) (receptor),538,0.408,0.00487,9070
HSV2-gE_R314Y_gI (from UniProt P89475 21-416; P06764 21-256) (receptor),600,0.385,0.00441,7350
HSV2-gE_R320A_gI (from UniProt P89475 21-416; P06764 21-256) (receptor),1500,0.295,0.00505,3360

Substance,Kd [nM],Response (nm),koff [s⁻¹],kon [M⁻¹ s⁻¹]
HSV2-gE_R320G_gI (from UniProt P89475 21-416; P06764 21-256) (receptor),1180,0.322,0.00462,3920
HSV2-gE_R320H_gI (from UniProt P89475 21-416; P06764 21-256) (receptor),4750,0.247,0.00421,886
HSV2-gE_R320I_gI (from UniProt P89475 21-416; P06764 21-256) (receptor),406,0.622,0.00438,10800
HSV2-gE_R320L_gI (from UniProt P89475 21-416; P06764 21-256) (receptor),291,0.785,0.00389,13400
HSV2-gE_R320M_gI (from UniProt P89475 21-416; P06764 21-256) (receptor),336,0.722,0.00462,13700
HSV2-gE_R320N_gI (from UniProt P89475 21-416; P06764 21-256) (receptor),828,0.379,0.00493,5950
HSV2-gE_R320P_gI (from UniProt P89475 21-416; P06764 21-256) (receptor),1650,0.267,0.00235,1420
HSV2-gE_R320Q_gI (from UniProt P89475 21-416; P06764 21-256) (receptor),902,0.351,0.00539,5980
HSV2-gE_R320S_gI (from UniProt P89475 21-416; P06764 21-256) (receptor),1050,0.343,0.00547,5190
HSV2-gE_R320T_gI (from UniProt P89475 21-416; P06764 21-256) (receptor),606,0.37,0.0042,6940
HSV2-gE_R320V_gI (from UniProt P89475 21-416; P06764 21-256) (receptor),469,0.52,0.00425,9060
HSV2-gE_S338E_gI (from UniProt P89475 21-416; P06764 21-256) (receptor),348,0.616,0.0043,12300
HSV2-gE_S338G_gI (from UniProt P89475 21-416; P06764 21-256) (receptor),339,0.562,0.00438,12900
HSV2-gE_S338L_gI (from UniProt P89475 21-416; P06764 21-256) (receptor),439,0.467,0.00223,5080
HSV2-gE_S338T_gI (from UniProt P89475 21-416; P06764 21-256) (receptor),186,0.785,0.00254,13600
HSV2-gE_V340A_gI (from UniProt P89475 21-416; P06764 21-256) (receptor),474,0.356,0.00422,8910
HSV2-gE_V340M_gI (from UniProt P89475 21-416; P06764 21-256) (receptor),278,0.621,0.00399,14300
HSV2-gE_V340P_gI (from UniProt P89475 21-416; P06764 21-256) (receptor),321,0.566,0.00465,14500
HSV2-gE_V340Q_gI (from UniProt P89475 21-416; P06764 21-256) (receptor),239,0.32,0.00218,9090
HSV2-gE_V340R_gI (from UniProt P89475 21-416; P06764 21-256) (receptor),< 0.001,0.201,< 1e-07,6650
